The subject of the data set is MS2 coat protein. The data set is described as follows: apparent KD of MS2 coat protein; designed switch direction (-1 OFF switch, 1 ON switch): -1; higher = weaker reporter binding. A digest of the protocol:
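The buffer was Tris-HCl pH 7.5 with KCl, MgCl2, BSA, DTT, tRNA and Tween-20. In it, SNAP-549-labelled MS2 coat protein was titrated in doubling steps from 0.7 or 1.5 nM to 3 µM over chip-bound RNA switches transcribed by stalled E. coli RNA polymerase on Illumina chips. Apparent KD is the per-design median over clusters of curve fits to normalised fluorescence.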

Setting [1] is: input ligand: microRNA oligo, concentration not stated.
The mark [2] stands for this setting: Eterna round: R95, input ligand: microRNA oligo, concentration not stated.
Setting [3] is: Eterna round: R95, input ligand: FMN 200 uM.
The mark [4] stands for this setting: Eterna round: R95, input ligand: none.

In the case of “AACCUGAGGCUUUGCUUUAGGUGUACAUGAGGAUCACCCAUGUAGGAUAUGGUAGGCAAAGCUUACCAGAAGGACAUGUUAAUU [Mat - Exclusion NG 3 - Mod of JL - D37] (Eterna round: R96, puzzle: Exclusion NG 3)”, the “apparent KD of MS2 coat protein” value by setting is: (input ligand: FMN 200 uM) 122 nM; under setting [1], 44.3 nM; (input ligand: none) 59.3 nM.

Take “AAGAUGCCAAAGGAUAUCGAAGGAGUGGCGCGGCGAGAAGGUUGGACAUGAGGAUCACCCAUGUGGUGGCUCCC [Usmaarri] (Eterna round: R97, puzzle: Exclusion 6)”: the “apparent KD of MS2 coat protein” value is, setting by setting: (input ligand: FMN 200 uM) 703 nM; (input ligand: none) 1070 nM.

With “GCACGAAGUGUAGGAUAUCUGUGCGAUUAGCUCAGAGAAGGACACAUGAGGAUCACCCAUGUGUUCCAAUACUCAAAUACGUGC [Eli exng1 - 0622] (Eterna round: R96, puzzle: Exclusion NG 1)”, the “apparent KD of MS2 coat protein” value by setting is: (input ligand: FMN 200 uM) 10.1 nM; under setting [1], 9.09 nM; (input ligand: none) 12.2 nM.

For the sequence “CUGCUGGAGCUUUGCUUUGGUCGUACAUGAGGAUCACCCAUGUAGGAUAUGGUAAGAUUUGCUUGCUAGAAGGAUAGAGUGGUC [salish99_ExNG3_r04_611] (Eterna round: R96, puzzle: Exclusion NG 3)”, the “apparent KD of MS2 coat protein” value was found to be 80.9 nM (input ligand: FMN 200 uM), 78.2 nM under setting [1] and 49.7 nM (input ligand: none).

Regarding “ACAAGAGCGGAAGGAUAUUUUACAUGAGGAUCACCCAUGUAAUAAAUGAGGAUCACGGAUGUAGUAAAGAAGGUCCGGAUAAGA [Ostracism 2 - Jieux - Exclusion NG 2] (Eterna round: R96, puzzle: Exclusion NG 2)”, the “apparent KD of MS2 coat protein” value under setting [1] came out at 18.4 nM.

Regarding “GGAUCGUAUGUCAGGAUAUACCACUGGAUACAGUGGUAGAAGGGACAUGAGGAUCACCCAUGUCUUAUCGAUCC [Fiskers BMX 4 - 52] (puzzle: Brourd's mod of Exclusion 4)”, the “apparent KD of MS2 coat protein” value under setting [2] is 14.3 nM.

Consider “UCAGUUCUGCAAGGAUAUCGUCCUAGUUUGGUACGAGAAGGUGCUUUUGUUUUUUCCUUGUGUUGACAUGAGGAUCACCCAUGU [JL JR Sub53 mod] (Eterna round: R96, puzzle: Exclusion NG 1)”, for which the “apparent KD of MS2 coat protein” value under setting [1] is 28.4 nM.

With “CAUGUCCGAGGAUAUAUUAUGUGAAACAUGAGGAUCACCCAUGUUAUAUGAUGGAUGUAAAUAGAAGGCGGACGUG [Mat - Exclusion 5 - JL mod - D65] (puzzle: Exclusion 5)”, the “apparent KD of MS2 coat protein” value by setting is: under setting [3], 26.3 nM; under setting [2], 31.6 nM; under setting [4], 34.5 nM.

On to “UUUAAUUUUUUUUUUUUACAAGCUUUUUGCUCGUCUUAUACAUGAGGAUCACCCAUGUAGAUGGGAAGUAAAUUAUC [JMF 53] (puzzle: Sensor v3, turn-off variant 2)”, for which the “apparent KD of MS2 coat protein” value runs as follows: under setting [3], 24.7 nM; under setting [2], 200 nM; under setting [4], 24.5 nM.

For “AGUAACUAUCACGAAAGUGAUAGUUACAAAACAGGUGAAACAUGAGGAUCACCCAUGUCCUCAUUUGCUCGUCUUAU [Sensor 3 - 3] (puzzle: Sensor v3, turn-off variant 2)”, the “apparent KD of MS2 coat protein” value was determined as 793 nM under setting [3], 384 nM under setting [2] and 857 nM under setting [4].

As for “GUCCGACAUGAGGAUCACCCAUGUGAGGAUAUGCGAUUAGCUGCUAGGUAGUUAGUAUGUAGAAGGCGCAUGAA [EX1 #76] (Eterna round: R97, puzzle: Exclusion 1)”, the “apparent KD of MS2 coat protein” value runs as follows: (input ligand: FMN 200 uM) 21.9 nM; (input ligand: none) 24.5 nM.

Consider “ACAUGAGGCGAAGGAUAUCUUUAGAGGAUUACCAGAGAAGGUCGACAUGAGGAUCACCCAUGUACAUGAGGGUCUUGAAUGUUA [9th something] (Eterna round: R96, puzzle: Exclusion NG 1)”, for which the “apparent KD of MS2 coat protein” value runs as follows: (input ligand: FMN 200 uM) 245 nM; under setting [1], 199 nM; (input ligand: none) 250 nM.

Take “CCGCUCCGUGUAGGAUAUCGUUGUACCCUGCGGCGAGAAGGACAUGAGGAUCACCCAUGUAUGUUAUUAUCACGCGUGGCGCAC [Design 71] (Eterna round: R96, puzzle: Exclusion NG 1)”: the “apparent KD of MS2 coat protein” value by setting is: (input ligand: FMN 200 uM) 18 nM; under setting [1], 15.8 nM; (input ligand: none) 19.3 nM.

For “UUAAAUCAUGUAGGAUAUGCGUGGCGAAGCUAUGCAGAAGGACAUGAGGAUCACCCAUGUGCUAGCGUCCGCGUACGGAUGCAA [JL ENG1 1.21] (Eterna round: R96, puzzle: Exclusion NG 1)”, the “apparent KD of MS2 coat protein” value reads like this: (input ligand: FMN 200 uM) 131 nM; under setting [1], 57.1 nM; (input ligand: none) 62 nM.

Regarding “CUUAUGUGAGGAUAUGCCUGGCCGUGAGGCCAAAUUUAUAAGCAGAAGGCACAUGAGGAUCACCCAUGUGCGGG [jl-ex4-4.69 ViennaUCT mod] (Eterna round: R97, puzzle: Exclusion 4)”, the “apparent KD of MS2 coat protein” value (input ligand: FMN 200 uM) was determined as 115 nM and the “apparent KD of MS2 coat protein” value (input ligand: none) amounted to 317 nM.

Take “AGUACUAACACGAAAGUGUUAGUUCAAUAAGCUUGUGAAACAUGAGGAUCACCCAUGUCCUCAUAAGCUCGUCUUAU [salish99_TOv2_r3_040] (puzzle: Sensor v3, turn-off variant 2)”: the “apparent KD of MS2 coat protein” value turned out to be 15.8 nM under setting [3], 856 nM under setting [2] and 15 nM under setting [4].

Turning to “GCAGCUAACUGUGAUAACAGCACAUGAGGAUCACCCAUGUCUGAGGAUAUGGACUGGAUUACAGUCCAGAAGGCAGAAUGCUGC [Zipper Style 7] (Eterna round: R96, puzzle: Exclusion NG 3)”, the “apparent KD of MS2 coat protein” value (input ligand: FMN 200 uM) was 10.8 nM, the “apparent KD of MS2 coat protein” value under setting [1] is 8.87 nM and the “apparent KD of MS2 coat protein” value (input ligand: none) turned out to be 13.4 nM.

In the case of “UUAUUAAUUAAGACUGCAAGAUCACAUGAGGAUCACCCAUGUCAGGAUAUCAGCUCGUUUAGAGCUGAGAAGGGACAAGCAGUC [ExNG3/15-A2] (Eterna round: R96, puzzle: Exclusion NG 3)”, the “apparent KD of MS2 coat protein” value (input ligand: FMN 200 uM) came to 337 nM, the “apparent KD of MS2 coat protein” value under setting [1] came to 98 nM and the “apparent KD of MS2 coat protein” value (input ligand: none) is 94.4 nM.

“GCUAGAGCAGGAUAUUUAGAUCCUCACAUGAGGAUCACCCAUGUGGUCGAAAGACUAAGAAGAGAAGGGCUCUAGC [Omei Ex5 E21] (Eterna round: R97, puzzle: Exclusion 5)”: the “apparent KD of MS2 coat protein” value is, setting by setting: (input ligand: FMN 200 uM) 326 nM; (input ligand: none) 944 nM.

On to “CCUCUACAUGAGGAUCACCCAUGUGAGGAUAUCAAAAUCAGGGCGGCUCCCUGACCCAUGAGAAGGUGCAUGGA [EX1 A.5] (Eterna round: R97, puzzle: Exclusion 1)”, for which the “apparent KD of MS2 coat protein” value came to 31 nM (input ligand: FMN 200 uM) and 16.8 nM (input ligand: none).

Take “GUAGAGUAAGGAUAUCAAGAAUAGGAUAGAAUGGUUAGAAUUGAGAAGGUACAUGAGGAUCACCCAUGUAAUGU [Excluse me!!!! 4 - Jieux - Exclusion 4] (puzzle: Exclusion 4)”: the “apparent KD of MS2 coat protein” value under setting [2] came to 24.1 nM.

For “GGUGGACAUGAGGAUCACCCAUGUGAGGAUAUCGGCCGGCUAGUGGUGGCUGGCUUCUCGAGAAGGCGCAUAGU [Exclusion 1 V76] (puzzle: Exclusion 1)”, the “apparent KD of MS2 coat protein” value under setting [2] is 46.8 nM.

Consider “CUGUGUAGACAGGAUAUGCUGUACAAAAGUACAGCAGAAGGGUCUACAUGAGGAUCACCCAUGUGUACCUCAUG [)mei Ex6 B26] (Eterna round: R97, puzzle: Exclusion 6)”, for which the “apparent KD of MS2 coat protein” value runs as follows: (input ligand: FMN 200 uM) 21.2 nM; (input ligand: none) 106 nM.

Regarding “UUUUUUGUUUUUUUUACAAGCUUUUUGCUCGUCUUAUUAACAUGAGGAUCACCCAUGUCAAAGAGACCUCAUGUAUU [Sensor v3 - turn-off variant 2 - 1] (puzzle: Sensor v3, turn-off variant 2)”, the “apparent KD of MS2 coat protein” value runs as follows: under setting [3], 91.2 nM; under setting [2], 15.7 nM; under setting [4], 207 nM.

Regarding “UUAGGCUGAAGAUCAAUUAAUUAACAUGAGGAUCACCCAUGUAAGGAUAUCAGCUCGUUUAGAGCUGAGAAGGUACAUGCAGCC [ExNG3/18-A2] (Eterna round: R96, puzzle: Exclusion NG 3)”, the “apparent KD of MS2 coat protein” value by setting is: (input ligand: FMN 200 uM) 351 nM; under setting [1], 121 nM; (input ligand: none) 118 nM.

For “UUUUAACAUGAGGAUCACCCAUGUGAGGAUAUCGAAAUUUAUAUUAAUAUUUAUUAAUCGAGAAGGCACAUUUU [JMF 60] (puzzle: Exclusion 1)”, the “apparent KD of MS2 coat protein” value under setting [2] was 100 nM.

Take “AUAGUAUAGCAAGGAUAUCGAUUUAGUUUGUUACGAGAAGGUGCUUUAGUUUAUACCUCUUGUUUACAUGAGGAUCACCCAUGU [JR_ExcNG1_Sub048] (Eterna round: R96, puzzle: Exclusion NG 1)”: under setting [1], the “apparent KD of MS2 coat protein” value turned out to be 19.4 nM.

Consider “ACUUAUUGAGGAUAUACAUUAAAUUACAUGAGGAUCACCCAUGUUCUUCAAUGUAUAUAUGUAGAAGGCAGAAGAU [Mat - Exclusion 5 - JL Mod - D20] (Eterna round: R97, puzzle: Exclusion 5)”, for which the “apparent KD of MS2 coat protein” value was 18.2 nM (input ligand: FMN 200 uM) and 14.4 nM (input ligand: none).

As for “AUACGCCAGGUAGGAUAUAGUACGUCGGCAACAUGAGGAUCACCCAUGUGGCCUCGUGUCUGGCACUAGAAGGGCCGAGGCCUU [Raatalave] (Eterna round: R96, puzzle: Exclusion NG 2)”, the “apparent KD of MS2 coat protein” value was determined as 33.5 nM (input ligand: FMN 200 uM), 26.2 nM under setting [1] and 30.9 nM (input ligand: none).

For “UGGUAACAUGAGGAUCACCCAUGUCAGGAUAUCAGUAAGAAGAGAUUAGAUUAGAAUAUGAGAAGGGACUAUAG [Excluse me! 2 - Jieux - Exclusion 1] (puzzle: Exclusion 1)”, the “apparent KD of MS2 coat protein” value reads like this: under setting [3], 30.1 nM; under setting [2], 40.3 nM; under setting [4], 37.8 nM.
